Laboratory results from paper PMC2575792.

Target: T1, ICAM-1 fused to monomeric EGFP (mEGFP) or to mRFP1, P05362
T1 chain: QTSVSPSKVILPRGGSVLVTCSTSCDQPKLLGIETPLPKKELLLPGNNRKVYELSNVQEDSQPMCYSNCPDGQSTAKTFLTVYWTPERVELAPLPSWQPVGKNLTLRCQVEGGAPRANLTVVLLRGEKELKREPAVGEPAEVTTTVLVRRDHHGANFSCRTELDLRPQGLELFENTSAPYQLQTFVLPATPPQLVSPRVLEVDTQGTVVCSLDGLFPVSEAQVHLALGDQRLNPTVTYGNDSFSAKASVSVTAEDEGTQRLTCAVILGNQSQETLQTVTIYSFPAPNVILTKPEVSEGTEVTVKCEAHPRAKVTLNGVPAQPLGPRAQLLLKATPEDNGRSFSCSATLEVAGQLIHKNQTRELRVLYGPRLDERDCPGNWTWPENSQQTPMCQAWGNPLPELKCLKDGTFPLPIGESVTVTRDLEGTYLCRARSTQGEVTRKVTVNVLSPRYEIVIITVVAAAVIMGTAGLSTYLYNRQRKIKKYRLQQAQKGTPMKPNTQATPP
Assay: FRET or BRET
Details: remark: other sources report otherwise

FRET efficiency: 14 to 34%
percent of pixels with positive FRET: 12%
B1: ICAM-1 fused to monomeric EGFP (mEGFP) or to mRFP1, P05362 28-532 (receptor)
chain: QTSVSPSKVILPRGGSVLVTCSTSCDQPKLLGIETPLPKKELLLPGNNRKVYELSNVQEDSQPMCYSNCPDGQSTAKTFLTVYWTPERVELAPLPSWQPVGKNLTLRCQVEGGAPRANLTVVLLRGEKELKREPAVGEPAEVTTTVLVRRDHHGANFSCRTELDLRPQGLELFENTSAPYQLQTFVLPATPPQLVSPRVLEVDTQGTVVCSLDGLFPVSEAQVHLALGDQRLNPTVTYGNDSFSAKASVSVTAEDEGTQRLTCAVILGNQSQETLQTVTIYSFPAPNVILTKPEVSEGTEVTVKCEAHPRAKVTLNGVPAQPLGPRAQLLLKATPEDNGRSFSCSATLEVAGQLIHKNQTRELRVLYGPRLDERDCPGNWTWPENSQQTPMCQAWGNPLPELKCLKDGTFPLPIGESVTVTRDLEGTYLCRARSTQGEVTRKVTVNVLSPRYEIVIITVVAAAVIMGTAGLSTYLYNRQRKIKKYRLQQAQKGTPMKPNTQATPP
